Measured values taken from US20180200383A1.

Biological target: human folate receptor 1 (FOLR1) (human) (UniProt P15328)
Test: cell-based or functional assay

human folate receptor 1 (FOLR1) (human), sequence (P15328 25-234 limits assumed, form in doubt): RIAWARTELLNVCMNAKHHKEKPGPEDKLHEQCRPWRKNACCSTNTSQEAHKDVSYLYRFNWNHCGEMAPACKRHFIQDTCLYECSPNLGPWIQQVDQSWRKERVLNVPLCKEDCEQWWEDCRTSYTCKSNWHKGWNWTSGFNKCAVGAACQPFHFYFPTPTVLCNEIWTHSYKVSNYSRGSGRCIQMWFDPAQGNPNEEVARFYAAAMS

B1: IMGN853 (immunoconjugate of antibody huMov19, sulfo-SPDB and DM4) (antibody, from a related filing, V domains shown, part only)
VH: QVQLVQSGAEVVKPGASVKISCKASGYTFTGYFMNWVKQSPGQSLEWIGRIHPYDGDTFYNQKFQGKATLTVDKSSNTAHMELLSLTSEDFAVYYCTRYDGSRAMDYWGQGTTVTVSS
VL: DIVLTQSPLSLAVSLGQPAIISCKASQSVSFAGTSLMHWYHQKPGQQPRLLIYRASNLEAGVPDRFSGSGSKTDFTLTISPVEAEDAATYYCQQSREYPYTFGGGTKLEIKR
  IC50 of cytotoxicity on Jeg-3 cells (5 days, WST-8): 1 nM
